± gives the uncertainty stated by the source.
Test: amyloid nucleation score (Sup35N fusion, yeast selection) (log enrichment); library NNK1; higher = more nucleation; inactive = no reads after selection
In short: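 Nucleation score is defined as the DiMSum log enrichment of output over input reads, with centring on the mode score of non-aggregating sequences. A minimum of 100 input reads was required for each sequence. Reads came from Illumina sequencing of plasmid inserts from psi-negative yeast expressing Sup35N fused to peptides of 20 random codons, induced with 100 μM copper sulfate for 24 hours and grown 7 days at 30°C on medium lacking adenine and uracil.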

Substance | amyloid nucleation score
FGSLRHCFTFNCNPGMGVWV | 2.53 ± 0.16
ATRVFLHIATQRSNLAYLPN | -0.189 ± 0.25
RFSSQTFY | -1.08 ± 2.4
PDRGEKLRRLNVWNKPCFGT | 0.829 ± 0.93
TWIKILSGPLYKFCI | -0.2 ± 0.56
VGVGFIHNLGTLEIQVT | -0.359 ± 0.36
VWVHKAY | -0.021 ± 1.2
SNYFVSVDRGIWSCCYMCSF | 7.474 ± 0.063
LWAFIIGIVSTTLLGYKPFH | -0.344 ± 1.1
FYVMCSARSQHAFSNKYLGY | -0.165 ± 0.26
RTIGFTEELP | -0.577 ± 0.96
FLILVSLGELGVTAI | inactive
YSLIVTRCC | -0.468 ± 0.41
CGMARWSRKSTELAHKQNVD | 0.277 ± 0.61
SNSNTIP | -0.676 ± 0.98
GLSVFSCQFFFNSTAFFSVN | 6.061 ± 0.06
TSLCMIHYVK | -0.069 ± 1.1
LLDSNHSVLYFIFGLVT | 1.27 ± 0.42
HVNSFKLGNGSFHFWY | 0.634 ± 0.38
NRYQRYVPTIEMEPNSSYGN | inactive
WGMIWCTIYGSVSNNNINLV | 4.2 ± 0.053
CRCSSQLRYMHGRFWFDRSV | 0.084 ± 0.62
QPLSLCLVFDCTNISFSFQA | 8.594 ± 0.045
GYGIGDGRVHTQNKVGCYGG | 1.33 ± 0.66
FKLMWNFQDLLVLLLRDRRY | 0.048 ± 0.62

Substance | amyloid nucleation score
GSLPIRNTFTWGEL | inactive
TVRFHYQGFTVS | -0.236 ± 0.61
VQAAGYITLATVALWSTSMQ | 2.02 ± 0.31
MGQGLCPRSYMFLVCELIVF | 0.818 ± 0.43
ARSFETLLTTSRGGKVDWLT | -0.272 ± 0.24
DGVEFPFRMIESRFNGCQD | -0.613 ± 0.77
ASLRLSTSLCEYGYRGRYTK | -0.05 ± 0.25
VSGAKLAFN | -0.46 ± 1.6
SKRLLQL | -0.665 ± 0.87
FGHKCAIFGNWEF | -0.933 ± 0.84
CGVEA | -0.542 ± 0.76
LQYWEVYSSCRMRVGYYSAD | 1.67 ± 0.13
LSLFCVLMY | 2.1 ± 0.27
FTQRSSVR | 0.651 ± 0.7
LRSVPRSRSF | 0.783 ± 0.41
ENQPVPLQDLKGAV | -0.352 ± 1.2
IKMYACMYWLVEFLVN | -0.046 ± 0.86
VYMSIRYRGSDNIRICVSVR | -0.13 ± 0.43
TFVLV | 0.332 ± 0.74
KLFGTAYS | -0.847 ± 0.96
TGDLGRTGKVTLGTLEDSKI | -0.694 ± 0.56
CVCLRGDKGPLSRLRLRSSS | 0.254 ± 1
ITVSYDKGFSFNLWGIHFKV | 0.071 ± 0.28
LEDHVWKVVVYLSKNDVCMG | 0.269 ± 0.67
VPENLVKMSEV | 0.279 ± 0.71

Substance | amyloid nucleation score
TTVLRGLKTP | -0.825 ± 1.5
HYRSTGMMESSRG | 0.522 ± 0.6
GNYSIARGLKNDKWCFFSSY | -0.234 ± 1.6
MDQFDLGSYSCASFQDTPAL | 1.39 ± 0.18
FSDTRTGGDSTPKN | 0.108 ± 0.36
TLRSTWFRMCHTISA | 0.441 ± 0.25
TVHVGTVPKFSYRFGIMGTE | -0.482 ± 0.66
PRNVFMSKTNNHFQRAFSVT | 0.925 ± 0.69
SEHRMASRHVNPRPGGKDCR | -1.54 ± 2.7
PRIRHHSLYCVVYWFIIDRT | inactive
MSLSAVSNMVLMKGVGMR | -0.73 ± 0.93
VYGVRAIR | 0.503 ± 0.61
SMCTCLRMGRLPIQVFSWSG | -1.52 ± 2.7
CSTFRVDFFSPCFLL | 6.006 ± 0.05
QFLRALGYAERRVGRRWLGW | -0.065 ± 0.71
IPLVVVNPSARFRLRTKIIR | 0.908 ± 0.88
EYRTSSEQTANTFILKPRWA | 1.72 ± 0.4
TYDGSKAIVALSKGNKN | 0.915 ± 0.51
RMQRNRGYPKVLLDMN | -0.472 ± 0.46
RYDSVFVIS | -0.129 ± 1.2
TGTPYLLHLNWNLGSGMSGT | 0.451 ± 0.2
GLMLHCGGLCWLLVVV | -0.539 ± 0.41
RKHIRYTLVREIPLKSFSQY | 0.043 ± 0.28
FDADGHPLKTPLCMGLSCGG | -0.129 ± 1.6
ASLKCEKGVCGVFGWSGVGH | -0.687 ± 1.4

Substance | amyloid nucleation score
IAPTFSYMMERSLFTVGYDM | -0.042 ± 0.41
FIGPRN | -1.05 ± 1.2
SSLPRYNPR | inactive
WREYRLWDEG | -0.208 ± 0.36
TFSLCKWVHSANKGLVQMTF | 0.265 ± 0.41
SNMSHLNRG | 0.649 ± 0.75
YCIPTVRVFL | 0.575 ± 0.66
DLRNMKVNTQDVSFLSPRGG | 0.208 ± 0.29
GIYSFGLCVGDIS | -0.623 ± 0.34
NWGVSNRVVWGRVPMLSVPH | -0.284 ± 0.98
RSNCWFEV | 0.035 ± 0.4
CHLIL | 0.115 ± 0.34
VNVITGWCAQELVVRAILEI | 0.341 ± 0.4
AWSLTSTHFG | 0.249 ± 0.69
PCVQSHMCYYNMSGITKGFR | -0.332 ± 0.43
KTGARYSLSACYLTRTDYHW | 0.056 ± 0.43
HCINGCYNSEDVIIVDLLAF | inactive
YIMILSYAVNKSYFTRLSCN | -0.459 ± 0.67
YMLSDLITCLCVAEELFRGQ | 4.81 ± 0.098
LCSIKNSLMECLWYDL | -0.177 ± 0.33
ATSKRIQWLMRERAPPTRYP | 0.203 ± 1.5
LRIHGSTLRISLW | 1.64 ± 0.28
IRTVKADNMRIWQAQRSSEI | 0.157 ± 0.87
VNGWARSMGGFLSCNSQRFG | -0.221 ± 0.65
FSVYAWGVFFDAVWFSCAVA | 1.29 ± 0.84

Substance | amyloid nucleation score
GNVIGGNMVVQWYSFCTVCV | 6.342 ± 0.062
TPLKEHLLNVVRMLGKIDCD | 0.177 ± 0.42
CLKFLDLNIKIDPYQFSF | inactive
PMHSLTASYNDSHFRNRGVM | inactive
INMRKYSNTGSGRLIFNFAF | 6.039 ± 0.052
LMVGVSRGSGWRCGPLGEGA | 0.035 ± 0.37
RPGVGAVRSHSAGRMGGYGD | -0.057 ± 1.7
IELDYYIINIVWPPAGNYRH | 6.734 ± 0.062
TNRPLVLTDNVNKSLKMRLP | 0.638 ± 0.27
AKMYLRTLYTSPLRLPLAPQ | -0.333 ± 1.4
QSFSKKEESYILYITRVHEP | 0.88 ± 0.69
TDCSSLC | -0.373 ± 0.31
SWTVGSMLSLDIWHRVYLTT | -0.058 ± 0.44
VCLVVEIG | 1.04 ± 0.93
MVHMCWLTME | 0.454 ± 0.25
AWLKSSGEEVVAGAQRPEHV | -1.02 ± 0.9
SRATVSFVSLGNLTFGTILC | 1.72 ± 0.36
MVRCNYRRRVGGDT | 0.905 ± 0.69
SIFVFRLYFLYGLV | 0.606 ± 0.44
MLHYAWVGLSVNDMVLPEMC | -0.78 ± 0.67
YFSFIWMYKMDIMTI | -0.117 ± 0.35
DCWSITILSVNRGSLFRLTF | inactive
FRSFLLPR | 0.644 ± 0.54
EYFRSTCRRATLSDPSMMHH | 0.185 ± 0.35
STVIHN | 1.23 ± 0.84

Substance | amyloid nucleation score
RLRNLYLQSFDRLCAVCKGY | 0.197 ± 0.35
GQKVMIAHGTQETIHGGCCG | -0.275 ± 0.49
ILTRRSLLRLWIIISDKSFR | -0.695 ± 1.4
GSNGMRGLRWGL | -0.485 ± 0.31
SCTLYYTSGSIMYAVMVLQE | 0.526 ± 0.49
LFVLLQHLAATFYVQVLTSR | -0.028 ± 0.89
SEHVIIGRRDFV | -0.018 ± 1
INLVTKYHLSITCSHSCQA | 7.204 ± 0.05
TLDLWNVRFC | -0.057 ± 1.4
DSLGGSKSCGSKL | 0.891 ± 0.97
SSLKVLIPYSCYHFV | 2.76 ± 0.1
VSVFLGSGHRRARGW | -0.482 ± 0.47
WCTTVRIRLYGSSIWRLFGA | 0.76 ± 0.45
TPTSSIPTPPRFPALTC | -0.72 ± 0.41
KANACGRFTN | 3.72 ± 0.1
KWHTRENCFSFLYVYFLMFP | inactive
HGSIQSV | inactive
DRHRLPILVFLITNRTQRMV | -0.098 ± 1.3
QGIEKGFDWKRIFCGELYVQ | -0.065 ± 0.4
SLYKMVMCNGYSCLLLYLVC | 0.353 ± 0.97
YFGSLYERGRIIGRRVMR | 0.267 ± 0.32
TGDDSYDVLLVGLVKTSGVY | -0.234 ± 0.34
RLAFLIDRWVALRNEWRKGV | -0.791 ± 0.72
TYWQVARTSPSF | 0.547 ± 0.33
LRSFIGRRS | 0.272 ± 0.32

Substance | amyloid nucleation score
SLESS | 0.642 ± 0.62
WAVGVRSQLWVARQAKVMGG | 0.741 ± 0.69
FVGSRRGLARVAEYGWLYHG | -0.464 ± 0.74
TTTNCRI | 0.057 ± 0.23
HYNFKDMNYKPLIVIEMHEW | 5.33 ± 0.055
VFNHTVPQSIRFYTYNRSSR | 3.87 ± 0.078
GGFHYAVDWSCLRNIVWADL | -1.2 ± 2.4
VFRFRGCF | 1.62 ± 0.38
GAVIRRWVIGSGALRDSCND | 0.382 ± 1.2
FMWKINWRENLYRLYSFSAY | -0.11 ± 0.51
DLDRDAKLS | -1.43 ± 0.7
HANISLRSWRFRYHCREFKG | 1.47 ± 0.2
VHLSGFVSLNLTVVSIRCIA | 2.06 ± 0.31
LFMFRLKYVIHWDIG | 0.911 ± 0.54
YITAWEWVQRRVV | 2.46 ± 0.18
LCNPQYM | 1.38 ± 0.69
KYMFRARCKRMTFGYPG | -1.58 ± 1.4
GLLGGIGRRRTMG | -0.643 ± 0.46
FYGTLVCVRRYSVVLNSNLE | 0.751 ± 0.93
YRMIIVGLCFMVVHMAASRK | 0.514 ± 0.69
PFSDSVARSDGCGVQRV | -0.444 ± 1.2
VDGLHLNSYYEPVSMMSIVV | -0.336 ± 0.43
RSFVLLGFPSY | -0.882 ± 0.66
TYVSNNPKGNPTLHAYFSF | 0.68 ± 0.97

Reference: the supplement of paper PMC12042874
